Source: patent US20250262210A1 (TRUSTEES OF COLUMBIA UNIVERSITY IN THE CITY OF NEW YORK, published 2025)

T1: LZTR1 R810W-FLAG (human, UniProt Q8N653 1-840)
T1 construct: Stably expressed in U87 cells by lentivirus; also called LZTR1-FLAG-R810W; LZTR1 RW; not shown: FLAG tag
T1 sequence (looked up): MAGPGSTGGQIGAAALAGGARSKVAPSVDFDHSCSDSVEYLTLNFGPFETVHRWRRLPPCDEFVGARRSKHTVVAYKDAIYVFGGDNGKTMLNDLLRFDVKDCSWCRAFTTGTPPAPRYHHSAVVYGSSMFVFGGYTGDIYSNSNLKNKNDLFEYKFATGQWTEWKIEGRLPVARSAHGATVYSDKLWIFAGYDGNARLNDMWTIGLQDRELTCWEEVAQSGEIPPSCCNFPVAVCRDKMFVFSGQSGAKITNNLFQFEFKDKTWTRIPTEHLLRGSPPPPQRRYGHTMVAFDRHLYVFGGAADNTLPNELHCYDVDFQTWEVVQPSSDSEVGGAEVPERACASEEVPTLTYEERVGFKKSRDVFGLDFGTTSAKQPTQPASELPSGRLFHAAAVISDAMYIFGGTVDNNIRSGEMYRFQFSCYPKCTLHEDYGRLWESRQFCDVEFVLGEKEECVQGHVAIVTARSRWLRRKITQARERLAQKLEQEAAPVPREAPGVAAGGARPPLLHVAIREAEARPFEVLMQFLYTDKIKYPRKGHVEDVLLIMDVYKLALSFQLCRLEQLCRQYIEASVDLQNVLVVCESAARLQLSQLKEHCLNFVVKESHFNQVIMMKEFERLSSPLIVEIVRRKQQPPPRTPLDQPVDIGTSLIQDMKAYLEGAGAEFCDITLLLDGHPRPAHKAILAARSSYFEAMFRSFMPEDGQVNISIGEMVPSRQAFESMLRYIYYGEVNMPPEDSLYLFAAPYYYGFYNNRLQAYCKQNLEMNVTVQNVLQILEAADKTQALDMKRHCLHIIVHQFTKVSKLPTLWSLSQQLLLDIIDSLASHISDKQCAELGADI

T2: LZTR1-FLAG (human, UniProt Q8N653 1-840)
T2 construct: Expressed in HEK 293T, HeLa or U87 cells; used as cell lysate; also called LZTR1 wild type-FLAG; LZTR1 WT; not shown: FLAG tag at the C-terminus
T2 sequence (looked up): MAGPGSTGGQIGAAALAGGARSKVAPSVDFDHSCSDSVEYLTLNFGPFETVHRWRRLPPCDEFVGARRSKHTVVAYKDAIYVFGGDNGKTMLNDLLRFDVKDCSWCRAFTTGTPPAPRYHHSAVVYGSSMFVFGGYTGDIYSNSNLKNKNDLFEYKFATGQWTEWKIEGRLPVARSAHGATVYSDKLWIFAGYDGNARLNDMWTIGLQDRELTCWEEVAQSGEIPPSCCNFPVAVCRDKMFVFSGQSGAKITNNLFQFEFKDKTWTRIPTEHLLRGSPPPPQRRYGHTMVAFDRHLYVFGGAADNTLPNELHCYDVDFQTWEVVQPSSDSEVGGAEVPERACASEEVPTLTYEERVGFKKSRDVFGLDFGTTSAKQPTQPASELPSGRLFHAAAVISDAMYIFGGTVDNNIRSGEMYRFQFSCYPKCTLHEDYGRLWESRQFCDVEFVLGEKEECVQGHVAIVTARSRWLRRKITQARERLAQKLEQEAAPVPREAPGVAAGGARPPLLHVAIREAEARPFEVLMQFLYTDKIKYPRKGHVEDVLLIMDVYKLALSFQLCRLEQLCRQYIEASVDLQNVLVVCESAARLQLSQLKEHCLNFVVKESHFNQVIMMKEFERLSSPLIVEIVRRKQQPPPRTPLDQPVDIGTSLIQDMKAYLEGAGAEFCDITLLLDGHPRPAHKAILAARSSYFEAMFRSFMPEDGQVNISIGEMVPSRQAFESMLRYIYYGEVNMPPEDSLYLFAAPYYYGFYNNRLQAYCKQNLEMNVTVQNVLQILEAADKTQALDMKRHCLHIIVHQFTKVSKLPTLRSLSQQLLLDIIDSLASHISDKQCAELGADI


What was measured:
LZTR1 R810W-FLAG = target: T1, LZTR1 R810W-FLAG; experiment: IP/MS, LZTR1 R810W-FLAG, U87
Summary of the method: (§1)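 Read-out: spectral counts from LC-MS/MS (Orbitrap Fusion) after MaxQuant identification. Variable modifications were Met oxidation, protein N-terminal acetylation and N/Q deamidation.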

LZTR1-FLAG = target: T2, LZTR1-FLAG; experiment: IP/MS, LZTR1 wild type-FLAG, U87
Summary of the method: as §1

Row | Binder | binding result (LZTR1 R810W-FLAG) | binding result (LZTR1-FLAG)
1 | PNPLA2 (other, human, UniProt Q96AD5 1-504, looked up) MFPREKTWNISFAGCGFLGVYYVGVASCLREHAPFLVANATHIYGASAGALTATALVTGVCLGEAGAKFIEVSKEARKRFLGPLHPSFNLVKIIRSFLLKVLPADSHEHASGRLGISLTRVSDGENVIISHFNSKDELIQANVCSGFIPVYCGLIPPSLQGVRYVDGGISDNLPLYELKNTITVSPFSGESDICPQDSSTNIHELRVTNTSIQFNLRNLYRLSKALFPPEPLVLREMCKQGYRDGLRFLQRNGLLNRPNPLLALPPARPHGPEDKDQAVESAQAEDYSQLPGEDHILEHLPARLNEALLEACVEPTDLLTTLSNMLPVRLATAMMVPYTLPLESALSFTIRLLEWLPDVPEDIRWMKEQTGSICQYLVMRAKRKLGRHLPSRLPEQVELRRVQSLPSVPLSCAAYREALPGWMRNNLSLGDALAKWEECQRQLLLGLFCTNVAFPPEALRMRAPADPAPAPADPASPQHQLAGPAPLLSTPAPEARPVIGALGL | binds | binds
2 | PTOV1 (other, human, UniProt Q86YD1 1-416, looked up) MVRPRRAPYRSGAGGPLGGRGRPPRPLVVRAVRSRSWPASPRGPQPPRIRARSAPPMEGARVFGALGPIGPSSPGLTLGGLAVSEHRLSNKLLAWSGVLEWQEKRRPYSDSTAKLKRTLPCQAYVNQGENLETDQWPQKLIMQLIPQQLLTTLGPLFRNSQLAQFHFTNRDCDSLKGLCRIMGNGFAGCMLFPHISPCEVRVLMLLYSSKKKIFMGLIPYDQSGFVSAIRQVITTRKQAVGPGGVNSGPVQIVNNKFLAWSGVMEWQEPRPEPNSRSKRWLPSHVYVNQGEILRTEQWPRKLYMQLIPQQLLTTLVPLFRNSRLVQFHFTKDLETLKSLCRIMDNGFAGCVHFSYKASCEIRVLMLLYSSEKKIFIGLIPHDQGNFVNGIRRVIANQQQVLQRNLEQEQQQRGMGG | binds | binds
3 | RAP1GDS1 (other, human, UniProt P52306 1-607, looked up) MDNLSDTLKKLKITAVDKTEDSLEGCLDCLLQALAQNNTETSEKIQASGILQLFASLLTPQSSCKAKVANIIAEVAKNEFMRIPCVDAGLISPLVQLLNSKDQEVLLQTGRALGNICYDSHEGRSAVDQAGGAQIVIDHLRSLCSITDPANEKLLTVFCGMLMNYSNENDSLQAQLINMGVIPTLVKLLGIHCQNAALTEMCLVAFGNLAELESSKEQFASTNIAEELVKLFKKQIEHDKREMIFEVLAPLAENDAIKLQLVEAGLVECLLEIVQQKVDSDKEDDITELKTGSDLMVLLLLGDESMQKLFEGGKGSVFQRVLSWIPSNNHQLQLAGALAIANFARNDANCIHMVDNGIVEKLMDLLDRHVEDGNVTVQHAALSALRNLAIPVINKAKMLSAGVTEAVLKFLKSEMPPVQFKLLGTLRMLIDAQAEAAEQLGKNVKLVERLVEWCEAKDHAGVMGESNRLLSALIRHSKSKDVIKTIVQSGGIKHLVTMATSEHVIMQNEALVALALIAALELGTAEKDLESAKLVQILHRLLADERSAPEIKYNSMVLICALMGSECLHKEVQDLAFLDVVSKLRSHENKSVAQQASLTEQRLTVES | binds | binds
4 | POR (other, human, UniProt P16435 2-677, looked up) GDSHVDTSSTVSEAVAEEVSLFSMTDMILFSLIVGLLTYWFLFRKKKEEVPEFTKIQTLTSSVRESSFVEKMKKTGRNIIVFYGSQTGTAEEFANRLSKDAHRYGMRGMSADPEEYDLADLSSLPEIDNALVVFCMATYGEGDPTDNAQDFYDWLQETDVDLSGVKFAVFGLGNKTYEHFNAMGKYVDKRLEQLGAQRIFELGLGDDDGNLEEDFITWREQFWPAVCEHFGVEATGEESSIRQYELVVHTDIDAAKVYMGEMGRLKSYENQKPPFDAKNPFLAAVTTNRKLNQGTERHLMHLELDISDSKIRYESGDHVAVYPANDSALVNQLGKILGADLDVVMSLNNLDEESNKKHPFPCPTSYRTALTYYLDITNPPRTNVLYELAQYASEPSEQELLRKMASSSGEGKELYLSWVVEARRHILAILQDCPSLRPPIDHLCELLPRLQARYYSIASSSKVHPNSVHICAVVVEYETKAGRINKGVATNWLRAKEPAGENGGRALVPMFVRKSQFRLPFKATTPVIMVGPGTGVAPFIGFIQERAWLRQQGKEVGETLLYYGCRRSDEDYLYREELAQFHRDGALTQLNVAFSREQSHKVYVQHLLKQDREHLWKLIEGGAHIYVCGDARNMARDVQNTFYDIVAELGAMEHAQAVDYIKKLMTKGRYSLDVWS | binds | binds

Other lines, results leading:

Row | binding result (LZTR1 R810W-FLAG) | binding result (LZTR1-FLAG) | Binder
5 | binds | binds | PPP6C (other, human, UniProt O00743 1-305, looked up) MAPLDLDKYVEIARLCKYLPENDLKRLCDYVCDLLLEESNVQPVSTPVTVCGDIHGQFYDLCELFRTGGQVPDTNYIFMGDFVDRGYYSLETFTYLLALKAKWPDRITLLRGNHESRQITQVYGFYDECQTKYGNANAWRYCTKVFDMLTVAALIDEQILCVHGGLSPDIKTLDQIRTIERNQEIPHKGAFCDLVWSDPEDVDTWAISPRGAGWLFGAKVTNEFVHINNLKLICRAHQLVHEGYKFMFDEKLVTVWSAPNYCYRCGNIASIMVFKDVNTREPKLFRAVPDSERVIPPRTTTPYFL
6 | binds | binds | RANBP9 (other, human, UniProt Q96S59 1-729, looked up) MSGQPPPPPPQQQQQQQQLSPPPPAALAPVSGVVLPAPPAVSAGSSPAGSPGGGAGGEGLGAAAAALLLHPPPPPPPATAAPPPPPPPPPPPASAAAPASGPPAPPGLAAGPGPAGGAPTPALVAGSSAAAPFPHGDSALNEQEKELQRRLKRLYPAVDEQETPLPRSWSPKDKFSYIGLSQNNLRVHYKGHGKTPKDAASVRATHPIPAACGIYYFEVKIVSKGRDGYMGIGLSAQGVNMNRLPGWDKHSYGYHGDDGHSFCSSGTGQPYGPTFTTGDVIGCCVNLINNTCFYTKNGHSLGIAFTDLPPNLYPTVGLQTPGEVVDANFGQHPFVFDIEDYMREWRTKIQAQIDRFPIGDREGEWQTMIQKMVSSYLVHHGYCATAEAFARSTDQTVLEELASIKNRQRIQKLVLAGRMGEAIETTQQLYPSLLERNPNLLFTLKVRQFIEMVNGTDSEVRCLGGRSPKSQDSYPVSPRPFSSPSMSPSHGMNIHNLASGKGSTAHFSGFESCSNGVISNKAHQSYCHSNKHQSSNLNVPELNSINMSRSQQVNNFTSNDVDMETDHYSNGVGETSSNGFLNGSSKHDHEMEDCDTEMEVDSSQLRRQLCGGSQAAIERMIHFGRELQAMSEQLRRDCGKNTANKKMLKDAFSLLAYSDPWNSPVGNQLDPIQREPVCSALNSAILETHNLPKQPPLALAMGQATQCLGLMARSGIGSCAFATVEDYLH
7 | binds | binds | RABGEF1 (other, human, UniProt Q9UJ41 1-491, looked up) MSLKSERRGIHVDQSDLLCKKGCGYYGNPAWQGFCSKCWREEYHKARQKQIQEDWELAERLQREEEEAFASSQSSQGAQSLTFSKFEEKKTNEKTRKVTTVKKFFSASSRVGSKKEIQEAKAPSPSINRQTSIETDRVSKEFIEFLKTFHKTGQEIYKQTKLFLEGMHYKRDLSIEEQSECAQDFYHNVAERMQTRGKVPPERVEKIMDQIEKYIMTRLYKYVFCPETTDDEKKDLAIQKRIRALRWVTPQMLCVPVNEDIPEVSDMVVKAITDIIEMDSKRVPRDKLACITKCSKHIFNAIKITKNEPASADDFLPTLIYIVLKGNPPRLQSNIQYITRFCNPSRLMTGEDGYYFTNLCCAVAFIEKLDAQSLNLSQEDFDRYMSGQTSPRKQEAESWSPDACLGVKQMYKNLDLLSQLNERQERIMNEAKKLEKDLIDWTDGIAREVQDIVEKYPLEIKPPNQPLAAIDSENVENDKLPPPLQPQVYAG
